Measured values published in article PMC11203631.

How the values were obtained:
Trastuzumab [1] = assay: SPR; Biacore X100; Tz amine-coupled to a CM3 chip at 1220 RU; authentic vault, vault-Z or peptide Z injected 3 min at 30 uL/min, 25 °C, in 10 mM HEPES pH 7.4, 0.15 M NaCl, 3 mM EDTA, 0.05% Surfactant P20; Langmuir 1:1 kinetic fit
Trastuzumab [2] = assay: SPR; same sensorgrams of Z peptide on immobilised Tz, fitted with the affinity model (Req against Z peptide concentration)
[3] = biological target: vault-Z nanoparticle (assembly of major vault protein carrying a C-terminal Z peptide) (human | staphylococcal (protein A-derived)); assay: co-sedimentation; 8 nM vault-Z (624 nM MVP-Z) or authentic vault incubated 1 h with 40 to 320 nM Tz in 12 mM sodium phosphate pH 7.2, 0.14 M NaCl, 2.7 mM KCl; pelleted at 100,000 x g, 2 h, 4 °C; pellets quantified by SDS-PAGE densitometry and LC/MS; apparent KD from a quadratic binding equation

| Substance | Kd (Trastuzumab [1]) | koff (Trastuzumab [1]) | kon (Trastuzumab [1]) | Kd (Trastuzumab [2]) | Tz bound per vault-Z at 160 nM Tz (Tz per vault-Z) [3] | stoichiometry N (Tz per vault-Z) [3] |
| --- | --- | --- | --- | --- | --- | --- |
| Z peptide in isolation | 0.0383 µM | 0.0171 s⁻¹ | 446000 M⁻¹ s⁻¹ | 0.056 µM |  |  |
| vault-Z nanoparticle (assembly of major vault protein carrying a C-terminal Z peptide) (complex) | 0.00253 µM | 0.000259 s⁻¹ | 105000 M⁻¹ s⁻¹ |  |  |  |
| Trastuzumab (antibody) |  |  |  |  | 14 | > 10 |
